According to patent publication US20230332136A1, “IL-17 RECEPTOR MODULATOR SCREENING SYSTEM” (New York University, priority 2022, published 2023):

Key:
IL-6 = test: IL-17A titration for activation of endogenous target gene IL-6 in MEF cells; format: cell-based, mouse; conditions: IL-17A titration (FIG. 3B)
Source text: FIGS. 3A and 3B provide construct schematics (designed for mouse genes), and cartoon depictions of the proteins encoded by the constructs, and a graph illustrating IL-17A titrations for activation of an endogenous target gene (IL-6) in MEF cells. […] FIG. 3A: schematics of functional units of the retroviral transfer plasmid constructs used to build the mouse ADIR system.

IL-17RA/RC = biological target: T1, IL-17RA/RC (Mus musculus, UniProt Q60943+Q8K4C2); test: mADIR-17 dmCherry reporter assay in MEF cells (flow cytometry); format: cell-based
T1 construct: Full length IL-17RC in the purified ADIR system; expressed in transfected cells; host or cells: mouse embryonic fibroblasts (MEF), retrovirally transduced
T1 sequence (Q60943 32-864): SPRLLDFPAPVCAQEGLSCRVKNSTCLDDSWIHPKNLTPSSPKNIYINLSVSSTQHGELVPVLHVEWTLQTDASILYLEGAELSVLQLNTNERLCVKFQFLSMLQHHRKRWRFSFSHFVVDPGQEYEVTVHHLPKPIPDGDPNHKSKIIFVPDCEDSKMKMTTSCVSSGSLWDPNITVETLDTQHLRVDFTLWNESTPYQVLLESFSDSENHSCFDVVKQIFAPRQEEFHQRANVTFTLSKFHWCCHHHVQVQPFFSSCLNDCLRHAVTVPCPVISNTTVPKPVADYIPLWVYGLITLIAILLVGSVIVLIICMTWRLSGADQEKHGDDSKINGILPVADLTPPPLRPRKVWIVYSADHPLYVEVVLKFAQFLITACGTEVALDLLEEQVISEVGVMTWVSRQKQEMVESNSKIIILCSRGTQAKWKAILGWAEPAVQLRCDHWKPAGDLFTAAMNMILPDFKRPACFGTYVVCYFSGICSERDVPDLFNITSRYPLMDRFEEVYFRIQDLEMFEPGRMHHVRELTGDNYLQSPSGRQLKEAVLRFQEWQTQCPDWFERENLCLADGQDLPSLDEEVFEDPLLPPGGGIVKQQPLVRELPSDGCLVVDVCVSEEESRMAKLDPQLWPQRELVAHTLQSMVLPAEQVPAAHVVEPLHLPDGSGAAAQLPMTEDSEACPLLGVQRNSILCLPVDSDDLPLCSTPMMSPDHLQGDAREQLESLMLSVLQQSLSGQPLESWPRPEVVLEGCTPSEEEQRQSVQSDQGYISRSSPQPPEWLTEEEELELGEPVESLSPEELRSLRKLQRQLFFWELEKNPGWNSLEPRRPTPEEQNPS
T1 sequence (Q8K4C2 22-698): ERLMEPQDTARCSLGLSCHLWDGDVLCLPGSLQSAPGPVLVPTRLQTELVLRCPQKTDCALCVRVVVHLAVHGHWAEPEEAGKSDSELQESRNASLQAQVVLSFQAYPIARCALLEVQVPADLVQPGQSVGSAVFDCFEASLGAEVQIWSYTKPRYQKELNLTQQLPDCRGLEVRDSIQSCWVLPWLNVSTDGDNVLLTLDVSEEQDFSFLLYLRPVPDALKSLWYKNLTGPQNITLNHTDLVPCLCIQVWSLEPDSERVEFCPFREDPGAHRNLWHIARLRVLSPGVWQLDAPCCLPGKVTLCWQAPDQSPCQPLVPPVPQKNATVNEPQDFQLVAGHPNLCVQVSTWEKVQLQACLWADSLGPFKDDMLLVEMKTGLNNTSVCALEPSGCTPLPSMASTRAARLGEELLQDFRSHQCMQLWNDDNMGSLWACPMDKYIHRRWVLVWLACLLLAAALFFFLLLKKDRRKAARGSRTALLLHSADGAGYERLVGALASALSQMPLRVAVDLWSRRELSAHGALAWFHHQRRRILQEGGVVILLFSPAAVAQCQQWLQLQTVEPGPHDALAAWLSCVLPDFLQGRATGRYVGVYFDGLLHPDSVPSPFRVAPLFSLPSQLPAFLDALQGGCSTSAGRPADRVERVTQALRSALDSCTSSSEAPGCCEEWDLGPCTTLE
Source text: Unless defined otherwise herein, all technical and scientific terms used in this disclosure have the same meaning as commonly understood by one of ordinary skill in the art to which this disclosure pertains. Where the term “ADIR” is used herein it means ACT1-Dependent IL-17 Receptor Modulator Screening System. The preface “m” means mouse and the prefix “h” means human.
Mouse constructs were produced as depicted in the panels of FIG. 1. Human sequence constructs were produced as in the panels of FIG. 9, where mouse cDNA constructs were replaced by human cDNA constructed. In the mouse ADIR system exogenous IL-17RC was not provided because the cell line (mouse embryonic fibroblasts) have endogenous IL-17RC expression. In the hADIR system, human components used for the hADIR system (hRA, hRC, hRB, hAct1) were expressed from added polynucleotides.
The data reflected in the Figures utilized a reporter system specifically designed for Act1-dependent IL-17 signaling pathways. The reporter system is based at least in part on the principle that the engagement of active cognate ligands, and the interaction between Act1 and IL-17 receptors is required for active signaling of IL-17A/F, IL-17E, and IL-17C. The protein-protein-interaction (PPI) based reporter system is highly specific and easily scalable. The disclosure is illustrated using mouse and human systems. For the data presented in the Figures, the system comprised a three-part reporter system specifically designed for detecting IL-17A/F, IL-17E, and IL-17C signaling. The PPI-based reporter system provides for detecting active signaling, and is specific for each of the IL-17 family cytokines. The system that is responsive to binding of IL-17A and IL-17F comprises (1) an Act1-tobacco etch virus (TEV) protease fusion protein, which upon active IL-17A/F binding to the IL-17RA/RC receptor heterodimer on a target cell, will be recruited to (2) IL-17RC fused with a TEV cleavage site(TSC)-tTA (a transcriptional transactivator that binds to tetracycline responsive element, or TRE), releasing tTA, which will subsequently translocate into the nucleus where a (3) TRE-dmCherry-PEST (destabilized mCherry) element is integrated into the genome. tTA binds to the TRE to drive dmCherry expression in the target modified cell. The three described components, Act1-TEV, IL-17RC-TSC-tTA, and TRE-dmCherry-PEST, along with IL-17RA, can be delivered by retro or lenti-viral vectors or guide-RNA directed nucleases, or recombinase systems, or by homologous recombination, into mouse embryonic fibroblasts (MEF) or other mammalian cell lines, establishing stable reporter cell lines. Using the same principle, IL-17RC-TSC-tTA can be replaced with IL-17RB-TSC-tTA in the described system to provide for IL-17E (IL-25) binding, and with IL-17RE-TSC-tTA for detecting IL-17C binding. A parallel approach involves attaching the fusion protein of —TSC-tTA to the RA component and three independent system cell lines generated by supplementing RC/RB/RE, Act1-TEV, and TRE-dmCherry reporter components. Each of the retroviral vectors can contain a unique selection or fluorescent marker to enable efficient generation and maintenance of stable cell lines (for example, Puromycin resistance for m/hIL-17RC(RB, RE)-TSC-tTA; EBFP for m/hAct1-TEV; Neomycin resistance and mVenus fluorescence for TRE-dmCherry-PEST, and Thy1.1 for m/hRA).

B1: IL-17A: mouse IL-17 family cytokine, cognate ligand of IL-17RA/RC, used as agonist in the mADIR-17 system (protein, UniProt Q62386 26-158, looked up)
Interleukin-17A: AAIIPQSSACPNTEAKDFLQNVKVNLKVFNSLGAKVSSRRPSDYLNRSTSPWTLHRNEDPDRYPSVIWEAQCRHQRCVNAEGKLDHHMNSVLIQQEILVLKREPESCPFTFRVEKMLVGVGCTCVASIVRQAA
For B1, the “activation of endogenous target gene (IL-6)” value (IL-6) was “upregulation of IL-6”, the dmCherry signal produced (IL-17RA/RC; 0.4 ng/ml, after 24 hrs (FIG. 7)) was 5.75% and the dmCherry signal produced (IL-17RA/RC; 2 ng/ml, after 24 hrs (FIG. 7)) was 24.6%. For the same molecule, the dmCherry signal produced (IL-17RA/RC; 10 ng/ml, after 24 hrs (FIG. 7)) was 43.6%, the “cells turning on dmCherry signal” value (IL-17RA/RC; 50 ng/ml, 24 hr after plating (FIG. 5B)) was 27.2% and the dmCherry signal produced (IL-17RA/RC; 50 ng/ml, after 24 hrs (FIG. 7)) was 55.1%. For the same molecule, the dmCherry signal produced (IL-17RA/RC; 100 ng/ml, after 24 hrs (FIG. 6I)) was 25%, the dmCherry signal produced (IL-17RA/RC; 100/2 ng/ml, after 24 hrs (FIG. 6H)) was 24.5% and the dmCherry signal produced (IL-17RA/RC; 100/(2^2) ng/ml, after 24 hrs (FIG. 6G)) was 21.9%. The dmCherry signal produced (IL-17RA/RC; 100/(2^3) ng/ml, after 24 hrs (FIG. 6F)) was 19.9%, the dmCherry produced (IL-17RA/RC; 100/(2^4) ng/ml, after 24 hrs (FIG. 6E)) was 17.6% and the dmCherry signal produced (IL-17RA/RC; 100/(2^5) ng/ml, after 24 hrs (FIG. 6D)) was 12.6%. For the same molecule, the dmCherry signal produced (IL-17RA/RC; 100/(2^6) ng/ml, after 24 hrs (FIG. 6C)) was 8.69%, the dmCherry signal produced (IL-17RA/RC; 100/(2′7) ng/ml, after 24 hrs (FIG. 6B)) was 5.36% and the “EC50 (sensitivity, dose-dependent dmCherry response)” value (IL-17RA/RC; mIL-17A/F system, three parameter [Agonist] vs. response fit (FIG. 6J)) was 3.556 ng/mL.
